Where “and” joins values, the source holds several entries; their conditions need not be identical. Equal entries are not always repeated.
B3: FITC-labeled JD_(1–82) of DnaJB8 (domain or fragment, human, UniProt Q8NHS0 1-82, looked up)
chain: MANYYEVLGVQASASPEDIKKAYRKLALRWHPDKNPDNKEEAEKKFKLVSEAYEVLSDSKKRSLYDRAGCDSWRAGGGASTP
modifications: FITC (labeled with 10× FITC-maleimide; site not stated)
notes: DnaJB8, human, J-domain, residues 1-82; Same construct as m4, with the fluorescein label; also called JD_(1–82)-FITC; JD_(1–82)–FITC; source: E. coli BL-21 (DE3), purified (TALON, Superdex 200), labeled with FITC-maleimide, excess dye removed by Superdex 75

Legend:
[1] = target: the molecule itself; assay: cross-linking; DnaJB8–Clover held on anti-GFP nanobody/Ni-NTA beads, 1× PBS, 57 mM ADH + 36 mM DMTMM, 1 min at 37 °C; eluate analysed by MS and western blot
[2] = target: the molecule itself; assay: dynamic light scattering; 1.2 mg/mL in 1× PBS, 1 mM DTT, pH 7.4, room temperature, time course over about 20 h; 150 mM or 285 mM NaCl for full-length DnaJB8
[3] = target: T1, human Hsp70 (HspA1A) (human, UniProt P0DMV8 1-641); assay: fluorescence polarisation; 0.2 μM FITC-JD_(1–82) with a titration of Hsp70 or CTD_(170–232) (150–0 μM) in 1× PBS, 1 mM TCEP, pH 7.4; one site-specific binding fit; conditions: both partners purified
T1 construct: HspA1A (Hsp70), human; HspA1A gene cloned into pMCSG7; no tag cleavage is described; source: E. coli BL-21 (DE3), purified (TALON, HiTrap Q anion exchange, Superdex 200)
T1 sequence (P0DMV8 whole entry): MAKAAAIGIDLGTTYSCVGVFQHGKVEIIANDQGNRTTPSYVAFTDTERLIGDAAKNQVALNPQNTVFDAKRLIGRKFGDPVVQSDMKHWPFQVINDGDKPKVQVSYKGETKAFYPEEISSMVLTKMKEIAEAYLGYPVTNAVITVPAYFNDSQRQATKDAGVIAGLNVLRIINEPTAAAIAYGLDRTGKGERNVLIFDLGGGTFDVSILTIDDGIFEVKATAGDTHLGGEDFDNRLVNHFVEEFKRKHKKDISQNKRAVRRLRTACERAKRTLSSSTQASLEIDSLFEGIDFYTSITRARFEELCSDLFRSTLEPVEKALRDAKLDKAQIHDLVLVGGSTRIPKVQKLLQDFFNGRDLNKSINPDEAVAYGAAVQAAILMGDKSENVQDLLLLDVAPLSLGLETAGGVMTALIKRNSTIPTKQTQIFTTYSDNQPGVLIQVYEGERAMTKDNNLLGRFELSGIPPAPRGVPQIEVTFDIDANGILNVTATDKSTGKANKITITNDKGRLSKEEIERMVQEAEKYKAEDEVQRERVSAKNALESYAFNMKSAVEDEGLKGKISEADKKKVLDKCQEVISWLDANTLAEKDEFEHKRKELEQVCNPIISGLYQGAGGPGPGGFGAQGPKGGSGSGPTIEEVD

[4] = target: B3; assay: as above; conditions: both partners purified

B1: DnaJB8–mClover3 fusion protein (natural protein, human, UniProt Q8NHS0 1-232, looked up)
chain: MANYYEVLGVQASASPEDIKKAYRKLALRWHPDKNPDNKEEAEKKFKLVSEAYEVLSDSKKRSLYDRAGCDSWRAGGGASTPYHSPFDTGYTFRNPEDIFREFFGGLDPFSFEFWDSPFNSDRGGRGHGLRGAFSAGFGEFPAFMEAFSSFNMLGCSGGSHTTFSSTSFGGSSSGSSGFKSVMSSTEMINGHKVTTKRIVENGQERVEVEEDGQLKSVTVNGKEQLKWMDSK
notes: also called DnaJB8–Clover; source: HEK293T polyclonal lentiviral cell line, isolated from lysate with His-tagged anti-GFP nanobody on Ni-NTA resin
binding result [1]: binds

B2: recombinant full-length DnaJB8 (wild type) (natural protein, human, UniProt Q8NHS0 1-232, looked up)
chain: MANYYEVLGVQASASPEDIKKAYRKLALRWHPDKNPDNKEEAEKKFKLVSEAYEVLSDSKKRSLYDRAGCDSWRAGGGASTPYHSPFDTGYTFRNPEDIFREFFGGLDPFSFEFWDSPFNSDRGGRGHGLRGAFSAGFGEFPAFMEAFSSFNMLGCSGGSHTTFSSTSFGGSSSGSSGFKSVMSSTEMINGHKVTTKRIVENGQERVEVEEDGQLKSVTVNGKEQLKWMDSK
notes: pET-29b; no tag removal is described; also called WT DnaJB8; source: E. coli BL-21 (DE3), purified from the insoluble fraction (8 M guanidinium HCl, Ni-NTA), dialysed, lyophilised
binding result [2]: binds

B3
Kd [3]: 0.413 ± 0.057 µM

B4: isolated C-terminal domain of DnaJB8, CTD_(170–232) (domain or fragment, human, UniProt Q8NHS0 170-232, looked up)
chain: GGSSSGSSGFKSVMSSTEMINGHKVTTKRIVENGQERVEVEEDGQLKSVTVNGKEQLKWMDSK
notes: source: E. coli BL-21 (DE3), purified (TALON, Superdex 200)
Kd [4]: 4.4 µM and 6.21 µM and 4.43 µM
